Tests used:
[1] = Coupled 6-O-sulfatase/β-glucosidase fluorimetric plate assay (reaction conditions, steady-state kinetics); type: biochemical
Text: Indirect measurement of enzyme activity was also made using a fluorimetrically-based plate assay in which the prerequisite desulfation of the appropriate glucopyranoside 1→4 methlybelliferone substrate by either the 6-O-sulfatase or N-sulfamidase was coupled to the glucosidase-mediated hydrolysis of the stereo-specific 1→4 glycosidic linkage between the pyranose ring and the adjoining fluorophore. Release of the free fluorophore (4-MU) was monitored spectroscopically as described above for the arylsulfatase assay using 4-MU sulfate. The two sulfatase assays differed in the choice of substrate in accordance to their specificity as well as the glucosidase added during the second, […] step. For the 6-O-sulfatase, the hydrolysis of the substrate 4-MU-β-D-GlcNAc,6S at the 6-OH position was coupled to β-glucosidase purified from sweet almonds (MP Biomedicals, Solon, Ohio, Catalog No. 195197). Likewise, N-sulfamidase hydrolysis of 4-MU-α-D-GlcNS at the 2-amino position was coupled to α-glucosidase (MP Biomedicals, Catalog No. 153487). […] The presumption of the first (sulfatase) activity being the rate-limiting step was established experimentally. Reaction conditions were optimized to satisfy three related criteria: 1) linear readout of fluorescent signal which is directly proportional to sulfatase activity; 2) quantitative release of 4-MU by glucosidase activity under every biochemical condition examined and; 3) negligible fluorescent quenching of the free chromophore.
For the 6-O-sulfatase/β-glucosidase assay, the standard reaction conditions included 2 μM recombinant enzyme, 50 mM sodium acetate buffer, pH 5.5, and 5 mM CaCl2 in a 20 μl reaction volume. 4-MU-GlcNAc,6S substrate concentration was varied from 0.1-2 mM. 2 μL of enzyme were added to each well of a microtiter plate (prechilled on ice), plate gently vortexed, and contents of each well spun down for 1 minute at 500×g, 4° C. […] Reactions were transferred to a black 96 well, flat-bottom FIA-plate and fluorescence measured as described above for the detection of free 4-MU. […]

[2] = ESI mass spectrometry of desulfation of non-derivatized sulfated glucosamine monosaccharides; type: biochemical
Description: Electrospray ionization mass spectrometry was performed in the negative ion mode using an Agilent 1100 Series VL LC/MSD Trap. For simplicity, the samples were prepared by adding MeOH directly to the enzymatic reaction mixtures without purification and were directly injected into the source of the mass spectrometer using a syringe pump at a rate of ˜8 μl/min, The SPS function of the software (LC/MSD Trap Software 4.1 Build 143, MSD Trap Control Version 5.0 Build 65) was used to tune the instrument with the target mass set to the mass of the substrate, the sample stability set to 50% and the drive level set to 100%. Data were acquired over the scan range of 100-2200 m/z by accumulating 30,000 ions per scan. Capillary voltage was set to 3000 V. Nitrogen was used as the drying gas while helium was used as the nebulizing gas, with flow rates of 5 and 15 liters/min, respectively. In each case a minimum of ten spectra were averaged.
For the experiments determining the order of action of the enzymes, reactions were carried out with 100 μM substrate, 2 mM CaCl2, 5 μM enzyme and various buffers at 37° C. overnight. Samples were diluted 1:10 in MeOH prior to analysis in the ESI, and the carrier solvent was H2O:MeOH (1:10, v/v). For the time course experiments showing desulfation of different unlabeled monosaccharides, reactions were carried out with 2.5 mM substrate, 5 mM CaCl2, 1 μM enzyme and 50 mM acetate buffer at pH 5.5 for the 6-O-sulfatase and pH 6.0 for the N-sulfamidase at 37° C. Reactions were quenched by diluting the samples 1:4 in MeOH. The carrier solvent was H2O:MeOH (1:4, v/v). In these experiments, 4-MU-GlcNS was added prior to injection as an internal standard to monitor ionization efficiency and mass accuracy within the source and trap.

B1: Flavobacterium heparinum 6-O-sulfatase (ORF B), recombinant, NH2-terminal truncation lacking signal sequence, SEQ ID NO: 2 (Pedobacter heparinus DSM 2366) (protein)
chain: TLMSCQQPKPAESAKRPNIVFIMTDDHTIQAISAYGSKLVKTPNLDRIANEGMLFNNCFVTNAVCGPSRATILTGKYSHLNGLTDNSKVFDSTQVIYPQLLKKAGYQTAMIGKWHLGSTPMGFDYYSILPNQGQYYQPEFIENGHLVKEKGYVTDLITDKAIGFLEKRDHDKPFLMIYQHKAPHRNWLPAPRHLGMFDDTVFPEPANLLDDFKGRGRAAKEQLMNISTDMWPAWDLKMLSTAQLDSMAKLPVSPKFKDAKGDDYQQANDPSLDKARFFEVYNRMTDAEKVQWRKVYDKRVAEFKRLNPKGADLVRWKYQQYMRDYLACVVSVDENVGRLMDYLKKIGELDNTIIVYTSDQGFYLGEHGYFDKRFMYDESFRTPLMVRYPPSVKAGSVSNAFAMNLDFAPTLLDYAGVKIPADMQGLSLRPVLDNAGKSPENWRKAVYYHYYEFPSWHMVKRHYGIRTERYKLIHFYNDIDEWELYDMQKDPHEMQNLYNDKAYEPIIKDLKVQMKKLQVQYKDTNPTEAL
notes: E. coli BL21(DE3), N-terminal 6xHis removed by thrombin
effect of Mg^+2 or Mn^+2 on activity ([1]; 1 mM or 5 mM divalent metal): only negligible effects | activity remaining relative to the zero NaCl control ([1]; 1 M NaCl): less than 20% | activation by the presence of calcium ([1]; calcium added): 2-3 fold | effect of the presence of a 3-O-sulfate [2]: completely inhibited | requirement at the 2-amino position of glucosamine [2]: required a substituted amine (acetate or sulfate) at the 2-amino position | comparative kinetic analysis GlcNAc,6S vs. GlcNS,6S ([2]; time course): only a modest preference of the enzyme for the monosulfated substrate

B2: Flavobacterium heparinum N-sulfamidase (ORF C), recombinant, NH2-terminal truncation lacking signal sequence, SEQ ID NO: 4 (Pedobacter heparinus DSM 2366) (protein)
chain: SCTSPEKKTDRPNILMIMSDNQSWNHVGSYGDQTVRTPNMDRIAKEGVRFTNAFCSSPSCTPARAGMLTGQDIWRLEDGGNLWGVLPVKYKVYPDLLEEAGYAIGFQGKGWGPGSFEANKRPRNPAGNEFKSFGAFLKDKKEGPWCYWISSHEPHRPYVEGSGEKAGIDPNKVKVPAYLPDHISIRKDIADYYAAVETFDRELGEALDQLKASGELDNTVIVVCSDNGWQMPRGLANLYDFGTHVPLIISWPGKFKQDVVADNLVTLNDLAPTFLQLGKVPVPADMTGKSLLPIVEAGKKDEKPRDYVVLGRERHAFVRRHGLGYPGRAIRTKDYLYIKNYEPNRWPAGDPPFYGDIDPYMFNWPGETKYYLIEHKDDPKVKSFFELGMGKRPAEELFDINKDPDELHNLAALPEYQKIKQELVAKLRNYLVATKDPRETNGNIQIWDTAAYFSEIDKTPKPSKEMQKRFKLDSSYNYLK
notes: as for B1
effect of the presence of a 3-O-sulfate [2]: completely inhibited | activity at the 2-amino position when a second sulfate at the 6-O position is present ([2]; substrate HNS,6S): absolutely abolished

From patent publication US8846363B2, “Compositions of and methods of using sulfatases from Flavobacterium heparinum” (priority 2007, dated 2014)
